Source: PMC3978581

Experiments:
[1] = target: Human prolactin receptor, endogenous on human breast cancer cell lines (human (endogenous in T47D, SKBR3, MDA-MB-468, MCF-7, BT474)) (UniProt P16471)
[2] = target: Human prolactin receptor, endogenous on human breast cancer cell lines (human (endogenous in T47D, SKBR3, MDA-MB-468, MCF-7, BT474)) (UniProt P16471); remark: listed apart in the source

Sequence of UniProt P16471 (P16471 25-622, stated change not applied): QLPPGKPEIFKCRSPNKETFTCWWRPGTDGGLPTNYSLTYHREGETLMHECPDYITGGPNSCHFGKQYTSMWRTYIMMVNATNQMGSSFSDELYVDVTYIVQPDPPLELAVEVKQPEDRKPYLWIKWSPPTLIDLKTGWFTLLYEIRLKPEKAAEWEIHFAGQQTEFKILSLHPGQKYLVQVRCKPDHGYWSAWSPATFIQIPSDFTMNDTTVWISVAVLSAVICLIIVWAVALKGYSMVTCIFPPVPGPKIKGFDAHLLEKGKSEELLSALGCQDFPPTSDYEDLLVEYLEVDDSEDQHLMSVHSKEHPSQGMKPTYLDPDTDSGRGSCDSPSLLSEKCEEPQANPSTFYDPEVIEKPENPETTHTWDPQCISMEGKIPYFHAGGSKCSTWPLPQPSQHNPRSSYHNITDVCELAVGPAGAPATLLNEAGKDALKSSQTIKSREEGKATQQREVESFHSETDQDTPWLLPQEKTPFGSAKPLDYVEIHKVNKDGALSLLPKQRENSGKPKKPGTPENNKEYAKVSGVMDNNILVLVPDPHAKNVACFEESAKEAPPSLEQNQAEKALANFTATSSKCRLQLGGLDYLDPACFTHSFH

EC50 of prolactin (1 to 100 nM, 15 min) for Stat5 tyrosine phosphorylation in SKBR3 cells at pHe 6.8 [1]: 119 nM | EC50 of prolactin (1 to 100 nM, 15 min) for Stat5 tyrosine phosphorylation in SKBR3 cells at pHe 7.4 [1]: 3.3 nM | EC50 of prolactin (1 to 100 nM, 15 min) for Stat5 tyrosine phosphorylation in T47D cells at pHe 6.8 [1]: 37.8 nM | EC50 of prolactin (1 to 100 nM, 15 min) for Stat5 tyrosine phosphorylation in T47D cells at pHe 7.4 [1]: 3.7 nM | loss of prolactin-stimulated Stat5 and Erk phosphorylation in T47D and SKBR3 cells over pHe 7.4 to 6.6; percent diminished at pHe 6.8 against pHe 7.4 [2]: > 80%
Substance: Recombinant human prolactin (from UniProt P01236 29-227) (ligand)
